From patent US20090263894A1 (AbbVie / Abbott, published 2009)
Changes are numbered by the printed parent chain. Blank lines part the entries; values can stand above or below the binder they belong to.

How the values were obtained:
[1] = target: T1, NGAL rAg S112A displayed on yeast (human, UniProt P80188 21-198); experiment: flow cytometry titration of the mAb on yeast displaying the NGAL antigen, detection with GaM-PE, fractional binding
T1 construct: Yeast display AGA2 fusion as m5
T1 chain: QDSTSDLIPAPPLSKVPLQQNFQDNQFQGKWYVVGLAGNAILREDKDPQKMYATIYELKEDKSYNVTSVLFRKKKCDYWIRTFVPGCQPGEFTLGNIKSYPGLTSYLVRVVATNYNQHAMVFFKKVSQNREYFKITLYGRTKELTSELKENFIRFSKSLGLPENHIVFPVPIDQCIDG

[2] = target: T2, wild-type NGAL antigen displayed on yeast (AGA2 fusion) (human, UniProt P80188 21-198); experiment: as above
T2 construct: also called WT

[3] = target: T3, NGAL rAg A119G displayed on yeast (human, UniProt P80188 21-198); experiment: as above
T3 construct: Yeast display AGA2 fusion as m5
T3 chain: T1 chain with A112S, A119G

[4] = target: T4, NGAL rAg Q117A displayed on yeast (human, UniProt P80188 21-198); experiment: as above
T4 construct: Yeast display AGA2 fusion as m5
T4 chain: T1 chain with A112S, Q117A

[5] = target: T1, NGAL rAg S112A displayed on yeast; experiment: flow cytometry, mAb titrated on yeast displaying NGAL
Description: (§1) The side chain of each of the NGAL rAg residues identified from the epitope selections was altered by site-directed mutagenesis to alanine to confirm the functional epitope (direct contact residues) of each NGAL mAb subclone.
(§2) The change in Gibbs free binding energy (ΔΔG_Ala-WT) was determined to assess the energetic impact of each alanine substitution for mAb binding. The change in Gibbs free binding energy upon alanine substitution was calculated using the following equation [2],
(§3) For these experiments, observed fluorescence (F) was used to solve for KD using equation [1]. The KD derived from equation [1] one was then used in equation [2] to derive the change in Gibbs free binding energy upon alanine substitution. The KD is read from the abscissa of each of the curves at the inflection point.

[6] = target: T5, NGAL rAg H118A displayed on yeast (human, UniProt P80188 21-198); experiment: as above
T5 construct: Yeast display AGA2 fusion as m5
T5 chain: T1 chain with A112S, H118A
Description: as §1, §2, §3

[7] = target: T4, NGAL rAg Q117A displayed on yeast; experiment: as above
Description: as §1, §2, §3

[8] = target: T6, NGAL rAg E147A displayed on yeast (human, UniProt P80188 21-198); experiment: as above
T6 construct: Yeast display AGA2 fusion as m5
T6 chain: T1 chain with A112S, E147A
Description: as §1, §2, §3

[9] = target: T7, NGAL rAg R109A displayed on yeast (human, UniProt P80188 21-198); experiment: flow cytometry, mAb titrated on yeast displaying NGAL; from the highest mAb concentration tested
T7 construct: Yeast display AGA2 fusion as m5
T7 chain: T1 chain with R109A, A112S
Description: as §1, §2, §3

[10] = target: T8, NGAL rAg K15A displayed on yeast (human, UniProt P80188 21-198); experiment: as above
T8 construct: Yeast display AGA2 fusion as m5
T8 chain: T1 chain with K15A, A112S
Description: as §1, §2, §3

[11] = target: T9, NGAL rAg G160A displayed on yeast (human, UniProt P80188 21-198); experiment: flow cytometry, mAb titrated on yeast displaying NGAL
T9 construct: Yeast display AGA2 fusion as m5
T9 chain: T1 chain with A112S, G160A
Description: as §1, §2, §3

EC50 (read off the curve) [1]: ~0.1 nM
EC50 (read off the curve) [2]: ~0.006 nM
EC50 (read off the curve) [3]: ~0.007 nM
EC50 (read off the curve) [4]: ~0.03 nM
Kd [5]: 0.0793 nM
ΔKD (KD against KD of WT) [5]: 9.79 fold
ΔΔG Ala-WT [5]: 1.35 kcal/mol
Kd [6]: 0.114 nM
ΔKD (KD against KD of WT) [6]: 14.1 fold
ΔΔG Ala-WT [6]: 1.56 kcal/mol
Kd [7]: 0.0307 nM
ΔKD (KD against KD of WT) [7]: 3.79 fold
ΔΔG Ala-WT [7]: 0.79 kcal/mol
Kd [8]: 492 nM
ΔKD (KD against KD of WT) [8]: 61000 fold
ΔΔG Ala-WT [8]: 6.5 kcal/mol
B1: anti-NGAL monoclonal antibody 1-2322-455 (antibody, V domains shown)
VH: EVQLVESGGGLVQPGGSLKLSCAASGFTFNNYYMSWVRQTPERRLEWVAYISSSGGSTYYSDSVRGRFTISRDTARNTLYLQMTSLKSEDTAMYYCARHFGDYSYFDYWGQGTTLTVSS
VL: DIQMTQSPASLSASVGETVTITCRASENFYSYLAWYQQKQGKSPQLLVYNAKTLAEGVPSRFSGSGSGTQFSLKINSLQPEDFGTYYCQHHYDIPLTFGAGTKLELKR

ΔKD (KD against KD of WT) [9]: > 24500 fold
ΔΔG Ala-WT [9]: > 5.97 kcal/mol
ΔKD (KD against KD of WT) [10]: > 24500 fold
ΔΔG Ala-WT [10]: > 5.97 kcal/mol
Kd [11]: 0.164 nM
ΔKD (KD against KD of WT) [11]: 0.8 fold
ΔΔG Ala-WT [11]: -0.13 kcal/mol
B2: anti-NGAL monoclonal antibody 1-903-430 (antibody, V domains shown)
VH: KIQLVQSGPELKKPGETVKISCKASGYTFTNYGMNWVKQAPGKGLKWMGWININTGEPTYAEEFKGRFAFSLETSATTAFLQINNLKNEDTATYLCARDSYSGGFDYWGQGTIVTVSS
VL: DIVMTQSPSSLSVSAGEKVTLSCKSSQSLLISGDQKNYLAWYQQKPGQPPKLLIYGASTRDSGVPDRFTGSGSGADFTLTISSVQAEDLAVYYCQNDHSFPPTFGAGTKLELKR
